The values that follow come from patent US20020164657A1, “Assays for assessing A beta-Tau aggregation” (priority 2001, published 2002).

The assay addresses T1, tau phosphorylated by TPK II (Homo sapiens, UniProt P10636).
T1 construct: Human recombinant tau 1-383 isoform; made in house; host or cells: tau and p20: E. coli; cdk5: baculovirus-infected insect cells
Put plainly: Gel-shift assay of TPK II tau phosphorylation. The note with it: 3 μM tau, 50 nM TPK II, 60 μM Aβ peptide, 4 hours, FIG. 8. It counts as biochemical.

T1 sequence (P10636 1-383 isoform P10636-6): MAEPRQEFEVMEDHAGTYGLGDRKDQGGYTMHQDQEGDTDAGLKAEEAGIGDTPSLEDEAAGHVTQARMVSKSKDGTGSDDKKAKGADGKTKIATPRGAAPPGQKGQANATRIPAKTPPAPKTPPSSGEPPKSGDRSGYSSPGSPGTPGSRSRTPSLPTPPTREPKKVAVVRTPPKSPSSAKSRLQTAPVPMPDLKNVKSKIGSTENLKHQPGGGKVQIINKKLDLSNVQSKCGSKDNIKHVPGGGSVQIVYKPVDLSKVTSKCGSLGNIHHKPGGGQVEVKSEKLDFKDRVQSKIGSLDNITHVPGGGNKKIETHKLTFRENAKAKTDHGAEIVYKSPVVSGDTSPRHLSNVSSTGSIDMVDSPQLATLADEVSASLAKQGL
Description: Gel-shift assays were done by incubating 3 μM tau with 50 nM TPK II and/or 167 units/ml TPK I for the indicated time at 37° C. in a total volume of 20 μl containing 40 mM Tris, pH 7.5, 10 mM MgCl2, 1 mM DTT, and 1 mM ATP. Aβ peptides were added at 10× concentrations to the assay to achieve the final concentration indicated. Following incubation the samples were electrophoresed on 12% SDS-PAGE and stained with Coomassie Blue R-250.

Turning to “Aβ 1-40: beta-amyloid peptide, residues 1-40, obtained from Bachem; control peptide”, the “effect on tau gel shift” value was “no effect”.
To “Aβ 25-35: beta-amyloid peptide fragment 25-35, obtained from Bachem; control peptide (GSNKGAIIGLM)” belongs “no effect”.
